Test results: patent publication US20240325555A1 (LANOVA MEDICINES, published 2024)
Like-named read-outs stand apart in the source and are kept apart here. Blank lines part the entries; values can stand above or below the binder they belong to.

Legend:
human LIV-1 [1] = biological target: T1, human LIV-1 (human, UniProt Q13433 29-755); assay: cell-based or functional assay
T1 sequence (looked up): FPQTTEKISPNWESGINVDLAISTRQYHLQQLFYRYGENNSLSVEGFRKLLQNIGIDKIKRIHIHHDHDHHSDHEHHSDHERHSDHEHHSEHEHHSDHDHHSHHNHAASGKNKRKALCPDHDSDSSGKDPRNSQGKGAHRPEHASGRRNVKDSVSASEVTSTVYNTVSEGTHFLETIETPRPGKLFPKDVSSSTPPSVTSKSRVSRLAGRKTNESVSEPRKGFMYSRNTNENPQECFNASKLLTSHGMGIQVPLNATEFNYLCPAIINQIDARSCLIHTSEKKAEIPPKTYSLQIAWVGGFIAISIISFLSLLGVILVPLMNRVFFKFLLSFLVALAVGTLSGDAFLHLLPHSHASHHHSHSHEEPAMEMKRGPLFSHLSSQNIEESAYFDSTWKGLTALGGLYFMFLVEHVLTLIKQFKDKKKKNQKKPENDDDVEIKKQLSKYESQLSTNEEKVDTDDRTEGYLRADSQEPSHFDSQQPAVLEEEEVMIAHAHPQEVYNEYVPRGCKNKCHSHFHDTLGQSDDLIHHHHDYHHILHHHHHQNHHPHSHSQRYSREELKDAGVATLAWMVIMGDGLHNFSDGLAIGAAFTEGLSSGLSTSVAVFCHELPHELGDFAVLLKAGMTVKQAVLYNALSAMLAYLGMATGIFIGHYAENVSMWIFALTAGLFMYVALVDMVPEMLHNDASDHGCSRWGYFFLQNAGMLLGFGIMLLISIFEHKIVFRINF

human LIV-1 [2] = biological target: T1, human LIV-1; assay: cell-based or functional assay; remark: listed apart in the source
human LIV-1 [3] = biological target: T1, human LIV-1; assay: cell-based or functional assay; remark: listed apart in the source
human LIV-1 [4] = biological target: T1, human LIV-1; assay: FACS, HEK293/H_LIV-1 cells
Summary of the method: (§1)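 HEK293 cells over-expressing human or cyno LIV-1 incubated with chimeric Abs (from 100 nM, 5-fold dilutions, 8 points) for 60 min at 4 °C, then fluorescent secondary antibody 30 min at 4 °C; washes in 2% FBS/PBS. Binding read by flow cytometry; EC50 from the titration curve.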

human LIV-1 [5] = biological target: T1, human LIV-1; assay: FACS, HEK293/H_LIV-1 cells; remark: listed apart in the source
Method: (§2) In this example, cell based binding of humanized antibodies (hu Abs) on human LIV-1-expressing cells were assessed using flow cytometry.
(§3) Cell based binding of hu-Abs on human LIV-1 expressing cells were assessed using flow cytometry. Briefly, the HEK293/H_LIV-1 cells were incubated with hu-Abs (from 100 nM, 6 folds dilution, 8 points). After incubation at 4° C. for 60 minutes, the cells were washed with FACS buffer twice, then stained with fluorescent conjugated secondary antibody at 4° C. for 30 minutes. After that the cells were washed twice and analyzed by flow cytometry.

rhesus LIV-1 = rhesus LIV-1 (rhesus, UniProt H9FSJ2 30-735); assay: FACS, HEK293/Rhe_LIV-1 cells
Method: Humanized antibodies 5D6B10.z7, 124H4D11.p2.z4 and 290F10G10.p1.z2 were selected for further testing. In this example, FACS cross binding of these selected antibodies to LIV-1 of different species were assessed using flow cytometry.
(§4) Cell based binding of optimal leads to different species LIV-1 expressing cells were assessed using flow cytometry. Briefly, the cells were incubated with optimal leads (from 100 nM, 6 folds dilution, 8 points). After incubation at 4° C. for 60 minutes, the cells were washed with 2% FBS/PBS buffer twice, then stained with fluorescent conjugated secondary antibody at 4° C. for 30 minutes. After that the cells were washed twice and resuspended in 80 μL of 2% FBS/PBS buffer. Fluorescent signal of binding was detected using Agilent. The EC50 was calculated using the GraphPad Software (LaJolla, CA).

cynomolgus LIV-1 [6] = biological target: T2, cynomolgus LIV-1 (cynomolgus, UniProt A0A2K5WH46 30-741); assay: FACS, HEK293/Cyno_LIV-1 cells
Summary of the method: as §1

cynomolgus LIV-1 [7] = biological target: T2, cynomolgus LIV-1; assay: FACS, HEK293/Cyno_LIV-1 cells; remark: listed apart in the source
Target sequence in this assay (A0A2K5WH46 entry or part of it): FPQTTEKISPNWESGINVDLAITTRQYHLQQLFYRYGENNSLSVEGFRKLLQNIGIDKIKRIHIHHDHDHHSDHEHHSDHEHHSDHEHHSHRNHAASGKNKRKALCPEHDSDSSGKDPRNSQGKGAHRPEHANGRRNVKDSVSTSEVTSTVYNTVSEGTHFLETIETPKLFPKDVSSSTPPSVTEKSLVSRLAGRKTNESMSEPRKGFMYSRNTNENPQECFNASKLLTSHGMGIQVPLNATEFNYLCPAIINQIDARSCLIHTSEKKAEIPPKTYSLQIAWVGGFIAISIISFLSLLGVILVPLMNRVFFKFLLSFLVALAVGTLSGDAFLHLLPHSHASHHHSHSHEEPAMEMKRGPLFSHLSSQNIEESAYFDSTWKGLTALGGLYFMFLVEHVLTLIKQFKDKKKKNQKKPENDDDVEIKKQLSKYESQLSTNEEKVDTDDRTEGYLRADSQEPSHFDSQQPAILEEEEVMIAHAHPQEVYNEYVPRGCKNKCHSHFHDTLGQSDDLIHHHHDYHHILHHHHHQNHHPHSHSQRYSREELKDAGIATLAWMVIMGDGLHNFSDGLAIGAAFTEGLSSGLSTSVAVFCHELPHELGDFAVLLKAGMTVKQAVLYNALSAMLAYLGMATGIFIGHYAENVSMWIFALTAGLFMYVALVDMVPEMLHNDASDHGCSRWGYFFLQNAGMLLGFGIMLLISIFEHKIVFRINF

cynomolgus LIV-1 [8] = biological target: T2, cynomolgus LIV-1; assay: FACS, HEK293/Cyno_LIV-1 cells; remark: listed apart in the source
Method: as §4
Target sequence in this assay (A0A2K5WH46 entry or part of it): as above

cynomolgus LIV-1 [9] = biological target: T2, cynomolgus LIV-1; assay: FACS, cyno LIV-1 cells
Target sequence in this assay (A0A2K5WH46 entry or part of it): as above

human LIV-1 [10] = biological target: T1, human LIV-1; assay: cell-based or functional assay; remark: listed apart in the source
human LIV-1 [11] = biological target: T1, human LIV-1; assay: FACS, human LIV-1 cells
Method: as §2, §3

human LIV-1 [12] = biological target: T1, human LIV-1; assay: FACS, HEK293/H_LIV-1 cells; remark: listed apart in the source
Method: as §3, with “ADC and naked of ADC” for “hu-Abs”, “HEK293/H_LIV-1, both low- and high-expressing H-LIV1-positive cell lines” for “the HEK293/H_LIV-1 cells”, “points), respectively.” for “points).”

human LIV-1 [13] = biological target: T1, human LIV-1; assay: FACS, BT20/H_LIV-1 Low cells
Method: as §3, with “ADC and naked of ADC” for “hu-Abs”, “HEK293/H_LIV-1, both low- and high-expressing H-LIV1-positive cell lines” for “the HEK293/H_LIV-1 cells”, “points), respectively.” for “points).”

human LIV-1 [14] = biological target: T1, human LIV-1; assay: FACS, BT20/H_LIV-1 High cells
Method: as §3, with “ADC and naked of ADC” for “hu-Abs”, “HEK293/H_LIV-1, both low- and high-expressing H-LIV1-positive cell lines” for “the HEK293/H_LIV-1 cells”, “points), respectively.” for “points).”

human LIV-1 [15] = biological target: T1, human LIV-1; assay: cell-based or functional assay; remark: listed apart in the source
human LIV-1 [16] = biological target: T1, human LIV-1; assay: cell-based or functional assay; remark: listed apart in the source

Sequence of rhesus LIV-1 (H9FSJ2 entry or part of it): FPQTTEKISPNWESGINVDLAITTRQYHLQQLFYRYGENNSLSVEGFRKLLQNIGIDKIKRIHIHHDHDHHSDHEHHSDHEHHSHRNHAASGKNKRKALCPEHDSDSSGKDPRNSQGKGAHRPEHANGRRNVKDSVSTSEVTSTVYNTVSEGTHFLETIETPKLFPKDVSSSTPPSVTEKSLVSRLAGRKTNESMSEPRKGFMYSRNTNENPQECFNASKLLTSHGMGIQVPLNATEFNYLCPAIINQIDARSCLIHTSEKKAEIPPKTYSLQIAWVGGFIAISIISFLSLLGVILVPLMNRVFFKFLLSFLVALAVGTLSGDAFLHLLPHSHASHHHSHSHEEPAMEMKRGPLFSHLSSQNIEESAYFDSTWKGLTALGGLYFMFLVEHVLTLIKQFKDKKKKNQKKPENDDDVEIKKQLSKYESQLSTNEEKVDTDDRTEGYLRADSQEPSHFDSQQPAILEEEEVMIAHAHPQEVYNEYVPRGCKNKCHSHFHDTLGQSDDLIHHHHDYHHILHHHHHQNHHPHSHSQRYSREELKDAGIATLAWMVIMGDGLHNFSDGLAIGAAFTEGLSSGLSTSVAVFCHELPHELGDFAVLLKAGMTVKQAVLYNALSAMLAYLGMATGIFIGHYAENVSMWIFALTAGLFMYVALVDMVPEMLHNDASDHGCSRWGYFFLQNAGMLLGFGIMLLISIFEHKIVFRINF

ADCC reporter EC50 (human LIV-1 [1]): 300 pM
ADCC reporter Top (RFU) (human LIV-1 [1]): 121000 RFU
Internalization EC50 (human LIV-1 [2]): 12700 pM
Internalization Top (RFU) (human LIV-1 [2]): 145000 RFU
EC50 (human LIV-1 [4]): 210 pM
Top (MFI) (human LIV-1 [4]): 70100 MFI
EC50 (human LIV-1 [5]): 290 pM
Top (MFI) (human LIV-1 [5]): 61900 MFI
EC50 (rhesus LIV-1): 270 pM
Top (MFI) (rhesus LIV-1): 38400 MFI
EC50 (cynomolgus LIV-1 [6]): 170 pM
Top (MFI) (cynomolgus LIV-1 [6]): 41100 MFI
EC50 (cynomolgus LIV-1 [7]): 390 pM
Top (MFI) (cynomolgus LIV-1 [7]): 25700 MFI
EC50 (cynomolgus LIV-1 [8]): 530 pM
Top (MFI) (cynomolgus LIV-1 [8]): 13900 MFI
B1: 5D6B10 (antibody, V domains shown)
VH: QVQLKQSGPGLVQPSQSLSITCTVSGFSLTTYGIHWVRQSPGKGLEWLGVIWTGGTTDYNAAFISRLSISKDNSKSQVFFKMNSLQANDTAIYYCARGPSSYWGQGTLVTVSA
VL: DIVMTQSQKFMSTSVGDRVSVTCKASQNVDTNVVWYQQKPGQSPKALIHSASYRYSGVPDRFTGSGSGTDFTLTISNVQSEDLAEYFCQQYNNYPWTFGGGTKLEIK
notes: Tested as chimeric antibody
Cell viability(%) (human LIV-1 [3]): 16.4%
Cytotoxicity IC50 (human LIV-1 [3]): 1550 pM

EC50 (cynomolgus LIV-1 [9]): 380 pM
Top (MFI) (cynomolgus LIV-1 [9]): 7470 MFI
Internalization EC50 (human LIV-1 [10]): 5000 pM
Internalization Top (MFI) (human LIV-1 [10]): 112000 MFI
EC50 (human LIV-1 [11]): 240 pM
Top (MFI) (human LIV-1 [11]): 7660 MFI
EC50 (human LIV-1 [12]): 700 pM
Top (MFI) (human LIV-1 [12]): 17800 MFI
EC50 (human LIV-1 [13]): 1430 pM
Top (MFI) (human LIV-1 [13]): 3400 MFI
EC50 (human LIV-1 [14]): 1060 pM
Top (MFI) (human LIV-1 [14]): 18800 MFI
B2: 290F10G10.p1.Z2 (antibody, V domains shown)
VH: EVQLVQSGAEVKKPGASVKVSCKASGYTFTSYWIHWVRQAPGQGLEWMGTIYPGDADTRSTQKFKDRVTMTADTSTSTVYMELSSLRSEDTAVYYCARSLIHDDYDKYYFDYWGQGTTVTVSS
VL: DIQMTQSPSSLSASVGDRVTITCKARQDINKYIAWYQQKPGKAPKLLIHYTSILQPGIPSRFSGSGSGRDYTFTISSLQPEDIATYYCLQYDYFFTFGGGTKVEIK
notes: also called 290F10G10.z2; LM-001

B3: LM-001-LM-D03 (antibody, V domains shown)
VH: EVQLVQSGAEVKKPGASVKVSCKASGYTFTSYWIHWVRQAPGQGLEWMGTIYPGDADTRSTQKFKDRVTMTADTSTSTVYMELSSLRSEDTAVYYCARSLIHDDYDKYYFDYWGQGTTVTVSS
VL: DIQMTQSPSSLSASVGDRVTITCKARQDINKYIAWYQQKPGKAPKLLIHYTSILQPGIPSRFSGSGSGRDYTFTISSLQPEDIATYYCLQYDYFFTFGGGTKVEIK
modifications: LM-D03 drug-linker conjugated; site and chain not stated
Bottom (% viability), BT20/H_LIV1-High expression (human LIV-1 [15]): 19.5%
Bottom (% viability), BT20/H_LIV1-Low expression (human LIV-1 [15]): 46.9%

B4: LM-001-LM-D01 (antibody, V domains shown)
VH: EVQLVQSGAEVKKPGASVKVSCKASGYTFTSYWIHWVRQAPGQGLEWMGTIYPGDADTRSTQKFKDRVTMTADTSTSTVYMELSSLRSEDTAVYYCARSLIHDDYDKYYFDYWGQGTTVTVSS
VL: DIQMTQSPSSLSASVGDRVTITCKARQDINKYIAWYQQKPGKAPKLLIHYTSILQPGIPSRFSGSGSGRDYTFTISSLQPEDIATYYCLQYDYFFTFGGGTKVEIK
modifications: LM-D01 drug-linker conjugated; site and chain not stated
Bottom (% viability), BT20/H_LIV1-High expression (human LIV-1 [15]): 37.9%
Bottom (% viability), BT20/H_LIV1-Low expression (human LIV-1 [15]): 48.4%

B5: LM-001-DXD (antibody, V domains shown)
VH: EVQLVQSGAEVKKPGASVKVSCKASGYTFTSYWIHWVRQAPGQGLEWMGTIYPGDADTRSTQKFKDRVTMTADTSTSTVYMELSSLRSEDTAVYYCARSLIHDDYDKYYFDYWGQGTTVTVSS
VL: DIQMTQSPSSLSASVGDRVTITCKARQDINKYIAWYQQKPGKAPKLLIHYTSILQPGIPSRFSGSGSGRDYTFTISSLQPEDIATYYCLQYDYFFTFGGGTKVEIK
modifications: DXD drug moiety conjugated; site and chain not stated
Bottom (% viability), BT20/H_LIV1-High expression (human LIV-1 [15]): 43.7%
Bottom (% viability), BT20/H_LIV1-Low expression (human LIV-1 [15]): 58.9%

EC50 (human LIV-1 [12]): 340 pM
Top (MFI) (human LIV-1 [12]): 19100 MFI
EC50 (human LIV-1 [13]): 680 pM
Top (MFI) (human LIV-1 [13]): 3570 MFI
EC50 (human LIV-1 [14]): 660 pM
Top (MFI) (human LIV-1 [14]): 20800 MFI
B6: 290F10G10.z2-MMAE (antibody, V domains shown)
VH: EVQLVQSGAEVKKPGASVKVSCKASGYTFTSYWIHWVRQAPGQGLEWMGTIYPGDADTRSTQKFKDRVTMTADTSTSTVYMELSSLRSEDTAVYYCARSLIHDDYDKYYFDYWGQGTTVTVSS
VL: DIQMTQSPSSLSASVGDRVTITCKARQDINKYIAWYQQKPGKAPKLLIHYTSILQPGIPSRFSGSGSGRDYTFTISSLQPEDIATYYCLQYDYFFTFGGGTKVEIK
modifications: MMAE drug moiety conjugated; site and chain not stated
notes: also called LM-001-MMAE
Min cell viability %, BT20/H_LIV-1 High (human LIV-1 [16]): 14.7%
Min cell viability %, BT20/H_LIV-1 Low (human LIV-1 [16]): 37.9%
Min cell viability %, HEK293/H_LIV-1 (human LIV-1 [16]): 15.3%
Bottom (% viability), BT20/H_LIV1-High expression (human LIV-1 [15]): 29.1%
Bottom (% viability), BT20/H_LIV1-Low expression (human LIV-1 [15]): 46.8%
